Measurements reported in the Human Domainome abundance scans (Beltran et al. 2025).
± gives the uncertainty stated by the source.

B1: Mineralocorticoid receptor, residues 600 to 675; numbered along this chain, P08235 (parent)
chain: SKICLVCGDEASGCHYGVVTCGSCKVFFKRAVEGQHNYLCAGRNDCIIDKIRRKNCPACRLQKCLQAGMNLGARKS

Variants of: B1
Experiment: abundance fitness (aPCA) (normalised: wild type 0, dead -1); higher = more abundant; growth selection in yeast, the domain comes from the species named
Conditions: Homo sapiens

Variant	abundance fitness
SKICLVCGDEASGCHYGVVTCGSCKVFFKRAVEGQHNYCCAGRNDCIIDKIRRKNCPACRLQKCLQAGMNLGARKS [L39C]	0.027 ± 0.049
SKICLVCGDEASGCHYGVVTCGSCKVFFKRAVEGQHNYACAGRNDCIIDKIRRKNCPACRLQKCLQAGMNLGARKS [L39A]	-0.093 ± 0.039
SKICLVCGDEASGCHYGVVTCGSCKVFFKRAVEGQHNYICAGRNDCIIDKIRRKNCPACRLQKCLQAGMNLGARKS [L39I]	-0.043 ± 0.047
SKICLVCGDEASGCHYGVVTCGSCKVFFKRAVEGQHNYMCAGRNDCIIDKIRRKNCPACRLQKCLQAGMNLGARKS [L39M]	0.016 ± 0.054
SKICLVCGDEASGCHYGVVTCGSCKVFFKRAVEGQHNYKCAGRNDCIIDKIRRKNCPACRLQKCLQAGMNLGARKS [L39K]	-0.009 ± 0.053
SKICLVCGDEASGCHYGVVTCGSCKVFFKRAVEGQHNYDCAGRNDCIIDKIRRKNCPACRLQKCLQAGMNLGARKS [L39D]	0.048 ± 0.065
SKICLVCGDEASGCHYGVVTCGSCKVFFKRAVEGQHNYGCAGRNDCIIDKIRRKNCPACRLQKCLQAGMNLGARKS [L39G]	-0.045 ± 0.038
SKICLVCGDEASGCHYGVVTCGSCKVFFKRAVEGQHNYFCAGRNDCIIDKIRRKNCPACRLQKCLQAGMNLGARKS [L39F]	-0.027 ± 0.044
SKICLVCGDEASGCHYGVVTCGSCKVFFKRAVEGQHNYPCAGRNDCIIDKIRRKNCPACRLQKCLQAGMNLGARKS [L39P]	-0.07 ± 0.057
SKICLVCGDEASGCHYGVVTCGSCKVFFKRAVEGQHNYQCAGRNDCIIDKIRRKNCPACRLQKCLQAGMNLGARKS [L39Q]	-0.001 ± 0.058
SKICLVCGDEASGCHYGVVTCGSCKVFFKRAVEGRHNYLCAGRNDCIIDKIRRKNCPACRLQKCLQAGMNLGARKS [Q35R]	-0.002 ± 0.038
SKICLVCGDEASGCHYGVVTCGSCKVFFKRAVEGNHNYLCAGRNDCIIDKIRRKNCPACRLQKCLQAGMNLGARKS [Q35N]	-0.058 ± 0.049
SKICLVCGDEASGCHYGVVTCGSCKVFFKRAVEGPHNYLCAGRNDCIIDKIRRKNCPACRLQKCLQAGMNLGARKS [Q35P]	-0.013 ± 0.047
SKICLVCGDEASGCHYGVVTCGSCKVFFKRAVEGSHNYLCAGRNDCIIDKIRRKNCPACRLQKCLQAGMNLGARKS [Q35S]	-0.028 ± 0.038
SKICLVCGDEASGCHYGVVTCGSCKVFFKRAVEGWHNYLCAGRNDCIIDKIRRKNCPACRLQKCLQAGMNLGARKS [Q35W]	-0.205 ± 0.057
SKICLVCGDEASGCHYGVVTCGSCKVFFKRAVEGVHNYLCAGRNDCIIDKIRRKNCPACRLQKCLQAGMNLGARKS [Q35V]	-0.079 ± 0.035
SKICLVCGDEASGCHYGVVTCGSCKVFFKRAVEGYHNYLCAGRNDCIIDKIRRKNCPACRLQKCLQAGMNLGARKS [Q35Y]	-0.112 ± 0.056
SKICLVCGDEASGCHYGVVTCGSCKVFFKRAVEGTHNYLCAGRNDCIIDKIRRKNCPACRLQKCLQAGMNLGARKS [Q35T]	-0.077 ± 0.043

Variant	abundance fitness
SKICLVCGDEASGCHYGVVTCGSCKVFFKRAVEGQHKYLCAGRNDCIIDKIRRKNCPACRLQKCLQAGMNLGARKS [N37K]	0.031 ± 0.051
SKICLVCGDEASGCHYGVVTCGSCKVFFKRAVEGQHIYLCAGRNDCIIDKIRRKNCPACRLQKCLQAGMNLGARKS [N37I]	-0.058 ± 0.058
SKICLVCGDEASGCHYGVVTCGSCKVFFKRAVEGQHQYLCAGRNDCIIDKIRRKNCPACRLQKCLQAGMNLGARKS [N37Q]	-0.017 ± 0.046
SKICLVCGDEASGCHYGVVTCGSCKVFFKRAVEGQHPYLCAGRNDCIIDKIRRKNCPACRLQKCLQAGMNLGARKS [N37P]	-0.083 ± 0.041
SKICLVCGDEASGCHYGVVTCGSCKVFFKRAVEGQHAYLCAGRNDCIIDKIRRKNCPACRLQKCLQAGMNLGARKS [N37A]	-0.027 ± 0.034
SKICLVCGDEASGCHYGVVTCGSCKVFFKRAVEGQHRYLCAGRNDCIIDKIRRKNCPACRLQKCLQAGMNLGARKS [N37R]	0.01 ± 0.03
SKICLVCGDEASGCHYGVVTCGSCKVFFKRAVEGQHHYLCAGRNDCIIDKIRRKNCPACRLQKCLQAGMNLGARKS [N37H]	-0.051 ± 0.051
SKICLVCGDEASGCHYGVVTCGSCKVFFKRAVEGQHCYLCAGRNDCIIDKIRRKNCPACRLQKCLQAGMNLGARKS [N37C]	-0.036 ± 0.049
SKICLVCGDEASGCHYGVVTCGSCKVFFKRAVEGQHGYLCAGRNDCIIDKIRRKNCPACRLQKCLQAGMNLGARKS [N37G]	-0.061 ± 0.03
SKICLVCGDEASGCHYGVVTCGSCKVFFKRAVEGQHFYLCAGRNDCIIDKIRRKNCPACRLQKCLQAGMNLGARKS [N37F]	-0.264 ± 0.075
SKICLVCGDEASGCHYGVVTCGSCKVFFKRAVEGQHYYLCAGRNDCIIDKIRRKNCPACRLQKCLQAGMNLGARKS [N37Y]	-0.085 ± 0.048
SKICLVCGDEASGCHYGVVTCGSCKVFFKRAVEGQHVYLCAGRNDCIIDKIRRKNCPACRLQKCLQAGMNLGARKS [N37V]	0.026 ± 0.036
SKICLVCGDEASGCHYGVVTCGSCKVFFKRAVEGQHDYLCAGRNDCIIDKIRRKNCPACRLQKCLQAGMNLGARKS [N37D]	-0.02 ± 0.047
SKICLVCGDEASGCHYGVVTCGSCKVFFKRAVEGQHEYLCAGRNDCIIDKIRRKNCPACRLQKCLQAGMNLGARKS [N37E]	0.068 ± 0.042
SKICLVCGDEASGCHYGVVTCGSCKVFFKRAVEGQHWYLCAGRNDCIIDKIRRKNCPACRLQKCLQAGMNLGARKS [N37W]	-0.23 ± 0.047
SKICLVCGDEASGCHYGVVTCGSCKVFFKRAVEGQHMYLCAGRNDCIIDKIRRKNCPACRLQKCLQAGMNLGARKS [N37M]	-0.076 ± 0.059
SKICLVCGDEASGCHYGVVTCGSCKVFFKRAVEGQHSYLCAGRNDCIIDKIRRKNCPACRLQKCLQAGMNLGARKS [N37S]	-0.043 ± 0.033
SKICLVCGDEASGCHYGVVTCGSCKVFFKRAVEGQHTYLCAGRNDCIIDKIRRKNCPACRLQKCLQAGMNLGARKS [N37T]	-0.029 ± 0.04
